Source: PMC7367873, “Dissecting the sequence determinants for dephosphorylation by the catalytic subunits of phosphatases PP1 and PP2A” (Nature Communications, 2020)

Tests used:
[1] = system: GFP-14-3-3β and its binding proteins; experiment: GFP-14-3-3β co-IP with LC-MS/MS label-free quantification, untreated versus PP1c-treated; parameters: species or system human; details: PP1 vs untreated; LFQ intensities; 3 replicates each
GFP-14-3-3β = GFP-14-3-3β co-IP with LC-MS/MS, untreated GFP-14-3-3β versus GFP control (14-3-3 interactome); format: binding, human; details: untreated vs GFP; LFQ intensities; 3 replicates each

| Molecule | Difference (log2), PP1 vs untreated [1] [log2] | Difference (log2), untreated vs GFP (GFP-14-3-3β) [log2] |
| --- | --- | --- |
| PABPC4 (protein, UniProt Q13310 1-644, looked up) Polyadenylate-binding protein …: MNAAASSYPMASLYVGDLHSDVTEAMLYEKFSPAGPVLSIRVCRDMITRRSLGYAYVNFQQPADAERALDTMNFDVIKGKPIRIMWSQRDPSLRKSGVGNVFIKNLDKSIDNKALYDTFSAFGNILSCKVVCDENGSKGYAFVHFETQEAADKAIEKMNGMLLNDRKVFVGRFKSRKEREAELGAKAKEFTNVYIKNFGEEVDDESLKELFSQFGKTLSVKVMRDPNGKSKGFGFVSYEKHEDANKAVEEMNGKEISGKIIFVGRAQKKVERQAELKRKFEQLKQERISRYQGVNLYIKNLDDTIDDEKLRKEFSPFGSITSAKVMLEDGRSKGFGFVCFSSPEEATKAVTEMNGRIVGSKPLYVALAQRKEERKAHLTNQYMQRVAGMRALPANAILNQFQPAAGGYFVPAVPQAQGRPPYYTPNQLAQMRPNPRWQQGGRPQGFQGMPSAIRQSGPRPTLRHLAPTGSECPDRLAMDFGGAGAAQQGLTDSCQSGGVPTAVQNLAPRAAVAAAAPRAVAPYKYASSVRSPHPAIQPLQAPQPAVHVQGQEPLTASMLAAAPPQEQKQMLGERLFPLIQTMHSNLAGKITGMLLEIDNSELLHMLESPESLRSKVDEAVAVLQAHHAKKEAAQKVGAVAAATS | 0.5259 | 2.4022 |
| STT3A (protein, UniProt P46977 1-705, looked up) Dolichyl-diphosphooligosacchar …: MTKFGFLRLSYEKQDTLLKLLILSMAAVLSFSTRLFAVLRFESVIHEFDPYFNYRTTRFLAEEGFYKFHNWFDDRAWYPLGRIIGGTIYPGLMITSAAIYHVLHFFHITIDIRNVCVFLAPLFSSFTTIVTYHLTKELKDAGAGLLAAAMIAVVPGYISRSVAGSYDNEGIAIFCMLLTYYMWIKAVKTGSICWAAKCALAYFYMVSSWGGYVFLINLIPLHVLVLMLTGRFSHRIYVAYCTVYCLGTILSMQISFVGFQPVLSSEHMAAFGVFGLCQIHAFVDYLRSKLNPQQFEVLFRSVISLVGFVLLTVGALLMLTGKISPWTGRFYSLLDPSYAKNNIPIIASVSEHQPTTWSSYYFDLQLLVFMFPVGLYYCFSNLSDARIFIIMYGVTSMYFSAVMVRLMLVLAPVMCILSGIGVSQVLSTYMKNLDISRPDKKSKKQQDSTYPIKNEVASGMILVMAFFLITYTFHSTWVTSEAYSSPSIVLSARGGDGSRIIFDDFREAYYWLRHNTPEDAKVMSWWDYGYQITAMANRTILVDNNTWNNTHISRVGQAMASTEEKAYEIMRELDVSYVLVIFGGLTGYSSDDINKFLWMVRIGGSTDTGKHIKENDYYTPTGEFRVDREGSPVLLNCLMYKMCYYRFGQVYTEAKRPPGFDRVRNAEIGNKDFELDVLEEAYTTEHWLVRIYKVKDLDNRGLSRT | 0.5123 | 0.4915 |
| PHLDB2 (protein, UniProt Q86SQ0 1-1253, looked up) Pleckstrin homology-like …: MEEHSYIQKELDLQNGSLEEDSVVHSVENDSQNMMESLSPKKYSSSLRFKANGDYSGSYLTLSQPVPAKRSPSPLGTSVRSSPSLAKIQGSKQFSYDGTDKNIPMKPPTPLLNTTSSLSGYPLGRADFDHYTGRDSERALRLSEKPPYSKYSSRHKSHDNVYSLGGLEGRKASGSLLAMWNGSSLSDAGPPPISRSGAASMPSSPKQARKMSIQDSLALQPKLTRHKELASENINLRTRKYSSSSLSHMGAYSRSLPRLYRATENQLTPLSLPPRNSLGNSKRTKLGEKDLPHSVIDNDNYLNFSSLSSGALPYKTSASEGNPYVSSTLSVPASPRVARKMLLASTSSCASDDFDQASYVGTNPSHSLLAGESDRVFATRRNFSCGSVEFDEADLESLRQASGTPQPALRERKSSISSISGRDDLMDYHRRQREERLREQEMERLERQRLETILSLCAEYTKPDSRLSTGTTVEDVQKINKELEKLQLSDEESVFEEALMSPDTRYRCHRKDSLPDADLASCGSLSQSSASFFTPRSTRNDELLSDLTRTPPPPSSTFPKASSESSYLSILPKTPEGISEEQRSQELAAMEETRIVILNNLEELKQKIKDINDQMDESFRELDMECALLDGEQKSETTELMKEKEILDHLNRKIAELEKNIVGEKTKEKVKLDAEREKLERLQELYSEQKTQLDNCPESMREQLQQQLKRDADLLDVESKHFEDLEFQQLEHESRLDEEKENLTQQLLREVAEYQRNIVSRKEKISALKKQANHIVQQAQREQDHFVKEKNNLIMMLQREKENLCNLEKKYSSLSGGKGFPVNPNTLKEGYISVNEINEPCGNSTNLSPSTQFPADADAVATEPATAVLASQPQSKEHFRSLEERKKQHKEGLYLSDTLPRKKTTSSISPHFSSATMGRSITPKAHLPLGQSNSCGSVLPPSLAAMAKDSESRRMLRGYNHQQMSEGHRQKSEFYNRTASESNVYLNSFHYPDHSYKDQAFDTLSLDSSDSMETSISACSPDNISSASTSNIARIEEMERLLKQAHAEKTRLLESREREMEAKKRALEEEKRRREILEKRLQEETSQRQKLIEKEVKIRERQRAQARPLTRYLPVRKEDFDLRSHVETAGHNIDTCYHVSITEKTCRGFLIKMGGKIKTWKKRWFVFDRNKRTFSYYADKHETKLKGVIYFQAIEEVYYDHLKNANKSPNPLLTFSVKTHDRIYYMVAPSPEAMRIWMDVIVTGAEGYTHFLL | 0.5277 | 1.653 |
| SLC2A1 (protein, UniProt P11166 1-492, looked up) Solute carrier family 2, …: MEPSSKKLTGRLMLAVGGAVLGSLQFGYNTGVINAPQKVIEEFYNQTWVHRYGESILPTTLTTLWSLSVAIFSVGGMIGSFSVGLFVNRFGRRNSMLMMNLLAFVSAVLMGFSKLGKSFEMLILGRFIIGVYCGLTTGFVPMYVGEVSPTALRGALGTLHQLGIVVGILIAQVFGLDSIMGNKDLWPLLLSIIFIPALLQCIVLPFCPESPRFLLINRNEENRAKSVLKKLRGTADVTHDLQEMKEESRQMMREKKVTILELFRSPAYRQPILIAVVLQLSQQLSGINAVFYYSTSIFEKAGVQQPVYATIGSGIVNTAFTVVSLFVVERAGRRTLHLIGLAGMAGCAILMTIALALLEQLPWMSYLSIVAIFGFVAFFEVGPGPIPWFIVAELFSQGPRPAAIAVAGFSNWTSNFIVGMCFQYVEQLCGPYVFIIFTVLLVLFFIFTYFKVPETKGRTFDEIASGFRQGGASQSDKTPEELFHPLGADSQV | 0.5451 | -0.3989 |
| DHX29 (protein, UniProt Q7Z478 1-1369, looked up) ATP-dependent RNA helicase …: MGGKNKKHKAPAAAVVRAAVSASRAKSAEAGIAGEAQSKKPVSRPATAAAAAAGSREPRVKQGPKIYSFNSTNDSSGPANLDKSILKVVINNKLEQRIIGVINEHKKQNNDKGMISGRLTAKKLQDLYMALQAFSFKTKDIEDAMTNTLLYGGDLHSALDWLCLNLSDDALPEGFSQEFEEQQPKSRPKFQSPQIQATISPPLQPKTKTYEEDPKSKPKKEEKNMEVNMKEWILRYAEQQNEEEKNENSKSLEEEEKFDPNERYLHLAAKLLDAKEQAATFKLEKNKQGQKEAQEKIRKFQREMETLEDHPVFNPAMKISHQQNERKKPPVATEGESALNFNLFEKSAAATEEEKDKKKEPHDVRNFDYTARSWTGKSPKQFLIDWVRKNLPKSPNPSFEKVPVGRYWKCRVRVIKSEDDVLVVCPTILTEDGMQAQHLGATLALYRLVKGQSVHQLLPPTYRDVWLEWSDAEKKREELNKMETNKPRDLFIAKLLNKLKQQQQQQQQHSENKRENSEDPEESWENLVSDEDFSALSLESANVEDLEPVRNLFRKLQSTPKYQKLLKERQQLPVFKHRDSIVETLKRHRVVVVAGETGSGKSTQVPHFLLEDLLLNEWEASKCNIVCTQPRRISAVSLANRVCDELGCENGPGGRNSLCGYQIRMESRACESTRLLYCTTGVLLRKLQEDGLLSNVSHVIVDEVHERSVQSDFLLIILKEILQKRSDLHLILMSATVDSEKFSTYFTHCPILRISGRSYPVEVFHLEDIIEETGFVLEKDSEYCQKFLEEEEEVTINVTSKAGGIKKYQEYIPVQTGAHADLNPFYQKYSSRTQHAILYMNPHKINLDLILELLAYLDKSPQFRNIEGAVLIFLPGLAHIQQLYDLLSNDRRFYSERYKVIALHSILSTQDQAAAFTLPPPGVRKIVLATNIAETGITIPDVVFVIDTGRTKENKYHESSQMSSLVETFVSKASALQRQGRAGRVRDGFCFRMYTRERFEGFMDYSVPEILRVPLEELCLHIMKCNLGSPEDFLSKALDPPQLQVISNAMNLLRKIGACELNEPKLTPLGQHLAALPVNVKIGKMLIFGAIFGCLDPVATLAAVMTEKSPFTTPIGRKDEADLAKSALAMADSDHLTIYNAYLGWKKARQEGGYRSEITYCRRNFLNRTSLLTLEDVKQELIKLVKAAGFSSSTTSTSWEGNRASQTLSFQEIALLKAVLVAGLYDNVGKIIYTKSVDVTEKLACIVETAQGKAQVHPSSVNRDLQTHGWLLYQEKIRYARVYLRETTLITPFPVLLFGGDIEVQHRERLLSIDGWIYFQAPVKIAVIFKQLRVLIDSVLRKKLENPKMSLENDKILQIITELIKTENN | 0.5459 | 1.239 |
| HNRNPD (protein, UniProt Q14103 2-355, looked up) Heterogeneous nuclear …: SEEQFGGDGAAAAATAAVGGSAGEQEGAMVAATQGAAAAAGSGAGTGGGTASGGTEGGSAESEGAKIDASKNEEDEGHSNSSPRHSEAATAQREEWKMFIGGLSWDTTKKDLKDYFSKFGEVVDCTLKLDPITGRSRGFGFVLFKESESVDKVMDQKEHKLNGKVIDPKRAKAMKTKEPVKKIFVGGLSPDTPEEKIREYFGGFGEVESIELPMDNKTNKRRGFCFITFKEEEPVKKIMEKKYHNVGLSKCEIKVAMSKEQYQQQQQWGSRGGFAGRARGRGGGPSQNWNQGYSNYWNQGYGNYGYNSQGYGGYGGYDYTGYNNYYGYGDYSNQQSGYGKVSRRGGHQNSYKPY | 0.5387 | 0.1919 |
| RCN1 (protein, UniProt Q15293 30-331, looked up) Reticulocalbin-1: KPTVRKERVVRPDSELGERPPEDNQSFQYDHEAFLGKEDSKTFDQLTPDESKERLGKIVDRIDNDGDGFVTTEELKTWIKRVQKRYIFDNVAKVWKDYDRDKDDKISWEEYKQATYGYYLGNPAEFHDSSDHHTFKKMLPRDERRFKAADLNGDLTATREEFTAFLHPEEFEHMKEIVVLETLEDIDKNGDGFVDQDEYIADMFSHEENGPEPDWVLSEREQFNEFRDLNKDGKLDKDEIRHWILPQDYDHAQAEARHLVYESDKNKDEKLTKEEILENWNMFVGSQATNYGEDLTKNHDEL | 0.5407 | -0.5528 |
| FUBP3 (protein, UniProt Q96I24 2-572, looked up) Far upstream element-binding …: AELVQGQSAPVGMKAEGFVDALHRVRQIAAKIDSIPHLNNSTPLVDPSVYGYGVQKRPLDDGVGNQLGALVHQRTVITEEFKVPDKMVGFIIGRGGEQISRIQAESGCKIQIASESSGIPERPCVLTGTPESIEQAKRLLGQIVDRCRNGPGFHNDIDSNSTIQEILIPASKVGLVIGRGGETIKQLQERTGVKMVMIQDGPLPTGADKPLRITGDAFKVQQAREMVLEIIREKDQADFRGVRGDFNSRMGGGSIEVSVPRFAVGIVIGRNGEMIKKIQNDAGVRIQFKPDDGISPERAAQVMGPPDRCQHAAHIISELILTAQERDGFGGLAAARGRGRGRGDWSVGAPGGVQEITYTVPADKCGLVIGKGGENIKSINQQSGAHVELQRNPPPNSDPNLRRFTIRGVPQQIEVARQLIDEKVGGTNLGAPGAFGQSPFSQPPAPPHQNTFPPRSSGCFPNMAAKVNGNPHSTPVSGPPAFLTQGWGSTYQAWQQPTQQVPSQQSQPQSSQPNYSKAWEDYYKKQSHAASAAPQASSPPDYTMAWAEYYRQQVAFYGQTLGQAQAHSQEQ | 0.5248 | 0.3039 |
